The record followed here is patent US11046988B2, “Process for the modification of a glycoprotein using a β-(1,4)-N-acetylgalactosaminyl transferase or a mutant thereof” (Synaffix B.V., priority 2014, dated 2021).

The nature of the data set: Coupled glycosyltransferase assay (R&D Systems Glycosyltransferase Activity Kit, malachite green, 620 nm): transfer of F2-GalNAz to GlcNAc. It is filed as biochemical. On the set-up: Data from the determination of the specific activity: unit not given here. Conditions: for Data from the determination of the specific activity: GlcNAc 20 mM, UDP-F2-GalNAz 500 μM, 20 min, room temperature, plate read at 620 nm; for specific activity: UDP-F2-GalNAz 500 μM to GlcNAc 20 mM, 5 mM MgCl2 and 5 mM MnCl2, pH 7.5, linear regression; for transferase activity compared with GalT(Y289L): transfer of F2-GalNAz from UDP-F2-GalNAz (18) to GlcNAc, FIG. 7 / FIG. 8. An excerpt: In brief, the glycosyltransferase kit determines the activity of a particular glycosyltransferase by means of a coupled assay that detects the release of liberated UDP upon transfer of the donor sugar (from the sugar-UDP nucleotide) to an acceptor sugar. In more detail, the UDP that is liberated upon transfer of sugar is hydrolyzed by a particular enzyme (CD39L3/rectonucleoside triphosphate diphosphohydrolase-3, also known as NTPDase-3) thereby generating UMP and one equivalent of phosphate (Pi). The latter phosphate in turn is detected by malachite green, which is also added to the mixture. A green color develops in proportion to the amount of inorganic phosphate released and the absorbance of the color at 620 nm is measured as a direct measure of the activity of the glycosyltransferase. In the present case, transfer of F2-GalNAz from the UDP-substrate to GlcNAc on the protein is accompanied by release of UDP, which is hydrolyzed by CD39L3 and the generated phosphate. Preferably, the derived or wild type β-(1,4)-GalNAcT enzyme used in the process according to the invention has at least 30%, 33%, 50%, 75%, 100%, 150%, 200%, or more preferably at least 300% of the UDP-F2-GalNAz transfer activity as compared to the UDP-F2-GalNAz transfer activity of the β-(1,4)-galactosyltransferase mutant enzyme Bos taurus GalT-Y289L (SEQ ID NO: 1), wherein the transfer activity is assessed using the R&D Systems Glycosyltransferase Activity Kit and applying the conditions as indicated in detail in Example 18 and using equal amounts of the enzyme to be tested and β-(1,4)-galactosyltransferase mutant enzyme Bos taurus GalT-Y289L (SEQ ID NO: 1).
Specific activity of enzymes was determined by a coupled glycosyltransferase procedure as described by Wu et al. in Glycobiology 2010, 21, 723-733, incorporated by reference, and commercially available as a kit from R&D system.
In short, a glycosyltransferase reaction was carried out in 50 μL of reaction buffer (25 mM Tris, 150 mM NaCl, 5 mM MgCl2 and 5 mM MnCl2, pH 7.5) in a 96-well plate at room temperature for 20 min. To determine the kinetic parameters of a glycosyltransferase, multiple reactions with varying amounts of the enzyme were carried out simultaneously (0.01, 0.02, 0.04, 0.06, 0.08, 0.10 and 0.12 μg of enzyme) in the presence of fixed amounts of all other components (GlcNAc: 20 mM, UDP-F2-GalNAz: 500 μM), including the coupling phosphatase 1 (ENTPD3/CD39L3) (2.5 μL of 20 ng/μL solution). A well containing all components except for the enzyme served as a blank control. The reactions were initiated by adding the substrates and phosphatase to the enzyme and terminated by the addition of 30 μL of Malachite reagent A and 100 μL of water to each well. The color was developed by the addition of 30 μL of Malachite reagent B to each well followed by gentle mixing and incubation at room temperature for 20 min. Following color development, the plate was read at 620 nm with a multi-well plate reader. A phosphate standard curve was also performed to determine the conversion factor between the absorbance and the inorganic phosphate contents. Preparation of UDP-F2-GalNAz is described in Example 13.
The specific activity of the GalNAcTs described herein were compared to GalT(Y289L), an enzyme known to transfer UDP-GalNAz as previously disclosed in WO 2007/095506 and WO 2008/029281 (both Invitrogen Corporation).
A graph depicting the conversion (in pmol/min/m) plotted against the amount of enzyme is shown in FIG. 7 (for Table 1) and FIG. 8 (for Table 2). From these plots specific activities were calculated by linear regression. […]

As for “CeGalNAcT: truncated Caenorhabditis elegans β-(1,4)-GalNAcT, amino acids 30-383 of SEQ ID NO: 2 (SEQ ID NO: 6)”, the specific activity is 426 pmol/min/µg and the “transferase activity compared with GalT(Y289L)” value is recorded as “significantly higher”. Also, under “0.01 μg enzyme”, the “Data from the determination of the specific activity” value (from here on “Data from the determination”) was determined as 0.031. Moreover, under “0.02 μg enzyme”, the “Data from the determination” value is recorded as 0.066. In addition, for the setting “0.04 μg enzyme”, the “Data from the determination” value came out at 0.14. Also, under “0.06 μg enzyme”, the “Data from the determination” value is listed as 0.162. Also, for the setting “0.08 μg enzyme”, the “Data from the determination” value is reported as 0.265. Also, the “Data from the determination” value (0.1 μg enzyme) came out at 0.301. Also, where the note is “0.12 μg enzyme”, the “Data from the determination” value is listed as 0.348. Also, the “activity for transfer of an azido-GalNAc derivative, times higher than GalT(Y289L)” value (relative to GalT(Y289L), FIG. 7) is on record as 10 times.

B1: TnGalNAcT: truncated Trichoplusia ni β-(1,4)-GalNAcT, amino acids 33-421 of SEQ ID NO: 4 (SEQ ID NO: 8) (protein)
chain: SPLRTYLYTPLYNATQPTLRNVERLAANWPKKIPSNYIEDSEEYSIKNISLSNHTTRASVVHPPSSITETASKLDKNMTIQDGAFAMISPTPLLITKLMDSIKSYVTTEDGVKKAEAVVTLPLCDSMPPDLGPITLNKTELELEWVEKKFPEVEWGGRYSPPNCTARHRVAIIVPYRDRQQHLAIFLNHMHPFLMKQQIEYGIFIVEQEGNKDFNRAKLMNVGFVESQKLVAEGWQCFVFHDIDLLPLDTRNLYSCPRQPRHMSASIDKLHFKLPYEDIFGGVSAMTLEQFTRVNGFSNKYWGWGGEDDDMSYRLKKINYHIARYKMSIARYAMLDHKKSTPNPKRYQLLSQTSKTFQKDGLSTLEYELVQVVQYHLYTHILVNIDERS
modifications: TnGalNAcT(33-421)
Consider B1, for which the specific activity came to 140 pmol/min/µg and the “transferase activity compared with GalT(Y289L)” value is reported as “significantly higher”. Besides, the “Data from the determination” value (0.01 μg enzyme) came out at 0. The “Data from the determination” value (0.02 μg enzyme) is given as 0.007. For the same molecule, for the setting “0.04 μg enzyme”, the “Data from the determination” value was found to be 0.025. The “Data from the determination” value (0.06 μg enzyme) is reported as 0.051. For the same molecule, under “0.08 μg enzyme”, the “Data from the determination” value is given as 0.073. Also, the “Data from the determination” value (0.1 μg enzyme) is reported as 0.083. Also, the “Data from the determination” value (0.12 μg enzyme) was found to be 0.102.
